According to US20200362033A1:
Where a chain is given by its changes, count along the chain named. Each block holds one binder with its values, some of them ahead of it.

Molecular target: human CD147 endogenously expressed on human cancer cell lines (human), P35613
Assay: cell-based or functional assay

ratio of the phosphorylated p38MAPK signal to the detected p38MAPK signal, HepG2 cells, 10 ug/ml, 15 minutes (fold of the human IgG treated group): > 2
B1: #101H1L2hIgG2 (antibody)
heavy: EVQLVESGGGLVQPGRSLRLSCAASGFTFSDYYMAWVRQAPGKGLEWVATISYDGSNTYYRDSVKGRFTISRDNSKSTLYLQMNSLRAGDTAVYYCARFYNNYYFDYWGQGTLVTVSSASTKGPSVFPLAPCSRSTSESTAALGCLVKDYFPEPVTVSWNSGALTSGVHTFPAVLQSSGLYSLSSVVTVPSSNFGTQTYTCNVDHKPSNTKVDKTVERKCCVECPPCPAPPVAGPSVFLFPPKPKDTLMISRTPEVTCVVVDVSHEDPEVQFNWYVDGVEVHNAKTKPREEQFNSTFRVVSVLTVVHQDWLNGKEYKCKVSNKGLPAPIEKTISKTKGQPREPQVYTLPPSREEMTKNQVSLTCLVKGFYPSDIAVEWESNGQPENNYKTTPPMLDSDGSFFLYSKLTVDKSRWQQGNVFSCSVMHEALHNHYTQKSLSLSPGK
light: DIQMTQSPSSLSASVGDRVTINCKASQNLYKNLAWYQQKPGKAPKLLIDNANSLQTGIPSRFSGSGSGTDFTLTISSLQPEDFATYFCQQYYSGSYTFGQGTKVEIKRTVAAPSVFIFPPSDEQLKSGTASVVCLLNNFYPREAKVQWKVDNALQSGNSQESVTEQDSKDSTYSLSSTLTLSKADYEKHKVYACEVTHQGLSSPVTKSFNRGEC

ratio of the phosphorylated p38MAPK signal to the detected p38MAPK signal, HepG2 cells, 10 ug/ml, 15 minutes (fold of the human IgG treated group): > 2
B2: #84H1L2hIgG2 (antibody)
heavy: EVQLVESGGGLVQPGGSLRLSCAASGFTFSNYYMAWVRQAPGKGLEWVSTITTSGSRPYYADSVKGRFTISRDNSKNTLYLQMNSLRAEDTAVYYCARHIYYYDGYPFAYWGQGTLVTVSSASTKGPSVFPLAPCSRSTSESTAALGCLVKDYFPEPVTVSWNSGALTSGVHTFPAVLQSSGLYSLSSVVTVPSSNFGTQTYTCNVDHKPSNTKVDKTVERKCCVECPPCPAPPVAGPSVFLFPPKPKDTLMISRTPEVTCVVVDVSHEDPEVQFNWYVDGVEVHNAKTKPREEQFNSTFRVVSVLTVVHQDWLNGKEYKCKVSNKGLPAPIEKTISKTKGQPREPQVYTLPPSREEMTKNQVSLTCLVKGFYPSDIAVEWESNGQPENNYKTTPPMLDSDGSFFLYSKLTVDKSRWQQGNVFSCSVMHEALHNHYTQKSLSLSPGK
light: DVQMTQSPSSLSASVGDRVTITCKASKSISNNLAWYQQKPGKANKLLIHSGSTLQSGTPSRFSGSGSGTDFTLTISSLQPEDFATYYCQQYNEYPLTFGQGTKVEIKRTVAAPSVFIFPPSDEQLKSGTASVVCLLNNFYPREAKVQWKVDNALQSGNSQESVTEQDSKDSTYSLSSTLTLSKADYEKHKVYACEVTHQGLSSPVTKSFNRGEC

ratio of the phosphorylated p38MAPK signal to the detected p38MAPK signal, HepG2 cells, 10 ug/ml, 15 minutes (fold of the human IgG treated group): > 2
B3: #131H2L2hIgG2 (antibody)
heavy: QVQLVESGGGVVQPGRSLRLSCAASGFTFNNYWMTWVRQAPGKGLEWVASITKAGGSTYYADSVKGRFTISRDNSKSTLYLQMNSLRAEGTAVYYCTRELGEFYVMDAWGQGTTVTVSSASTKGPSVFPLAPCSRSTSESTAALGCLVKDYFPEPVTVSWNSGALTSGVHTFPAVLQSSGLYSLSSVVTVPSSNFGTQTYTCNVDHKPSNTKVDKTVERKCCVECPPCPAPPVAGPSVFLFPPKPKDTLMISRTPEVTCVVVDVSHEDPEVQFNWYVDGVEVHNAKTKPREEQFNSTFRVVSVLTVVHQDWLNGKEYKCKVSNKGLPAPIEKTISKTKGQPREPQVYTLPPSREEMTKNQVSLTCLVKGFYPSDIAVEWESNGQPENNYKTTPPMLDSDGSFFLYSKLTVDKSRWQQGNVFSCSVMHEALHNHYTQKSLSLSPGK
light: B2 light with S30N, N31T, N32Y, Q38E, A43T, H49Y, Y91H, L96F, V104L
